Literature values in publication PMC4253632.

Target: Syntaxin 4 (Homo sapiens) (UniProt Q12846)
Chain of UniProt Q12846 (Q12846 whole entry): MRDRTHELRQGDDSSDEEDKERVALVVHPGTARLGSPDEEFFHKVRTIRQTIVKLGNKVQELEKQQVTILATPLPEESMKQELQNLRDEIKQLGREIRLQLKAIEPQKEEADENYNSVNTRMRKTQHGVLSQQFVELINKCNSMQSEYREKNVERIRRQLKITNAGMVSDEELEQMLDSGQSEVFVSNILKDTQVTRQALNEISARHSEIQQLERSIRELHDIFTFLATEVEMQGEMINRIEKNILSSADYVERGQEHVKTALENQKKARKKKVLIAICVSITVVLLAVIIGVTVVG

- Kd: 30 nM
Substance: Munc18c (from UniProt O00186)
